The source of these data is PMC7088246.

The test deals with recombinant glycosylated HIV-1 IIIB gp120 (baculovirus) (HIV-1 IIIB) (UniProt P04578). Nature of the test: SPR.

Consider “His-tagged recombinant KAA-1 (natural protein)”, for which the Ka amounted to 1.48e+09 M⁻¹, the Kd was 0.677 nM and the kon stood at 871000 M⁻¹ s⁻¹.
As to “recombinant KAA-1 (His tag removed by thrombin) (natural protein)”, the Ka was found to be 1.61e+09 M⁻¹, the Kd came out at 0.622 nM and the koff worked out at 0.000529 s⁻¹.
